This is an account of results in PMC7400623, “Effect of lysine side chain length on histone lysine acetyltransferase catalysis” (Scientific Reports, 2020).

Assay [1] addresses Human GCN5 catalytic domain (residues 497-662) (human) (UniProt Q92830).
In assay [2] the target is Human PCAF catalytic domain (residues 498-658) (human) (UniProt Q92831).
Assay [3] has the same target. The source holds these as a separate data set.

A value given as a limit tells only on which side of the number the result lay.

Sequence of Human PCAF catalytic domain (residues 498-658) (human) (Q92831 498-658): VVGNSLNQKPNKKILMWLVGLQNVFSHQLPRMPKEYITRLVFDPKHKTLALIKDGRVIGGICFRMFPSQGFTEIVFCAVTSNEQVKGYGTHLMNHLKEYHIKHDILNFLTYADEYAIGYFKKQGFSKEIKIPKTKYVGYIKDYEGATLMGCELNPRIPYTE
Sequence of Human GCN5 catalytic domain (residues 497-662) (human) (Q92830 497-662): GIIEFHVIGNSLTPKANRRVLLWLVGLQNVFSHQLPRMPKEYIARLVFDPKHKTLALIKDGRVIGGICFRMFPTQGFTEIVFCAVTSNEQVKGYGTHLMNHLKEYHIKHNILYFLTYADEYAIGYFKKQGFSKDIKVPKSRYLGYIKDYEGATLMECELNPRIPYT

As to “H3K*9 histone peptide containing Dab at position 9 (H3 residues 1-15, K14 acetylated)”, the IC50 of inhibition of GCN5-catalyzed acetylation of the H3K9 peptide (single point, 100 µM of each peptide, 1 h, 37 °C, MALDI-TOF MS; residual activity greater than 50%) in assay [1] was greater than 100 µM. In addition, the IC50 of inhibition of PCAF-catalyzed acetylation of the H3K9 peptide (single point, 100 µM of each peptide, 1 h, 37 °C, MALDI-TOF MS; residual activity greater than 50%) in assay [2] is greater than 100 µM.

As to “H3K*9 histone peptide containing Orn at position 9 (H3 residues 1-15, K14 acetylated)”, the IC50 of inhibition of GCN5-catalyzed acetylation of the H3K9 peptide (single point, 100 µM of each peptide, 1 h, 37 °C, MALDI-TOF MS; residual activity greater than 50%) in assay [1] was greater than 100 µM. In assay [2], this substance returned an IC50 of inhibition of PCAF-catalyzed acetylation of the H3K9 peptide (single point, 100 µM of each peptide, 1 h, 37 °C, MALDI-TOF MS; residual activity greater than 50%) greater than 100 µM.

“H3K*9 histone peptide containing h4K at position 9 (H3 residues 1-15, K14 acetylated)” came in with an IC50 of inhibition of GCN5-catalyzed acetylation of the H3K9 peptide (single point, 100 µM of each peptide, 1 h, 37 °C, MALDI-TOF MS; residual activity greater than 50%) in assay [1] greater than 100 µM. Besides, the IC50 of inhibition of PCAF-catalyzed acetylation of the H3K9 peptide (single point, 100 µM of each peptide, 1 h, 37 °C, MALDI-TOF MS; residual activity greater than 50%) in assay [2] is greater than 100 µM.

On to “H3K*14 histone peptide containing Dab at position 14 (H3 residues 3-17, K9 acetylated)”, for which the IC50 of inhibition of GCN5-catalyzed acetylation of the H3K14 peptide (single point, 100 µM of each peptide, 1 h, 37 °C, MALDI-TOF MS; residual activity greater than 50%) in assay [1] is greater than 100 µM. In assay [2], the IC50 of inhibition of PCAF-catalyzed acetylation of the H3K14 peptide (single point, 100 µM of each peptide, 1 h, 37 °C, MALDI-TOF MS; residual activity greater than 50%) is greater than 100 µM.

Regarding “H3K*14 histone peptide containing Orn at position 14 (H3 residues 3-17, K9 acetylated)”, the IC50 of inhibition of GCN5-catalyzed acetylation of the H3K14 peptide (single point, 100 µM of each peptide, 1 h, 37 °C, MALDI-TOF MS; residual activity greater than 50%) in assay [1] is greater than 100 µM. The substance also yielded an IC50 of inhibition of PCAF-catalyzed acetylation of the H3K14 peptide (single point, 100 µM of each peptide, 1 h, 37 °C, MALDI-TOF MS; residual activity greater than 50%) in assay [2] greater than 100 µM.

In turn, “H3K*14 histone peptide containing h4K at position 14 (H3 residues 3-17, K9 acetylated)” registered an IC50 of inhibition of GCN5-catalyzed acetylation of the H3K14 peptide (single point, 100 µM of each peptide, 1 h, 37 °C, MALDI-TOF MS; residual activity greater than 50%) in assay [1] greater than 100 µM. This substance also had an IC50 of inhibition of PCAF-catalyzed acetylation of the H3K14 peptide (single point, 100 µM of each peptide, 1 h, 37 °C, MALDI-TOF MS; residual activity greater than 50%) in assay [2] greater than 100 µM.

Consider “H3h2K9 histone peptide (H3 residues 1-15, K14 acetylated, h2K at position 9)”, for which, in assay [3], the Km^app of PCAF-catalyzed acetylation (MALDI-TOF MS kinetics, steady state, saturating AcCoA, 37 °C, pH 7.4) was found to be 179 μM.
